From patent US20240287138A1 (Merck Sharp & Dohme, published 2024)
Bridge positions count the residues as written; N and C are the ends. Square brackets hold non-standard residues; d marks the D form. Primed or numbered codes have the meaning given here. Trp(βS-Me,7-OMe) = COc1cccc2c([C@H](C)[C@H](N)C(=O)O)c[nH]c12; Phe(2-F,4-COOH) = N[C@@H](Cc1ccc(C(=O)O)cc1F)C(=O)O; Trp(7-CN) = N#Cc1cccc2c(C[C@H](N)C(=O)O)c[nH]c12; Trp(7-Cl) = N[C@@H](Cc1c[nH]c2c(Cl)cccc12)C(=O)O; Phe(3-COOH) = N[C@@H](Cc1cccc(C(=O)O)c1)C(=O)O; Phe(4-CONH2) = NC(=O)c1ccc(C[C@H](N)C(=O)O)cc1; Phe(4-COOH) = N[C@@H](Cc1ccc(C(=O)O)cc1)C(=O)O; Trp(7-aza) = N[C@@H](Cc1c[nH]c2ncccc12)C(=O)O; Phe(4-CH2NH2) = NCc1ccc(C[C@H](N)C(=O)O)cc1; dPro(trans-4-F) = O=C(O)[C@H]1C[C@H](F)CN1; Pip(4-aza) = O=C(O)[C@@H]1CNCCN1; 3Pal = N[C@@H](Cc1cccnc1)C(=O)O; 4Pal = N[C@@H](Cc1ccncc1)C(=O)O; NMeE = CN[C@@H](CCC(=O)O)C(=O)O; dHyp = O=C(O)[C@H]1C[C@H](O)CN1; dNMeE = CN[C@H](CCC(=O)O)C(=O)O; Phe4AcPip = not defined here; Pipt5OH = not defined here; αMeS = C[C@](N)(CO)C(=O)O; Nle = CCCC[C@H](N)C(=O)O; Pip2c = not defined here; TZAla = not defined here; Ahp′ = not defined here; Pip′ = not defined here; Sar = CNCC(=O)O

T1: TNFR1 on THP-1 Lucia NF-κB cells (UniProt P19438 30-455, limits assumed)
T1 sequence (looked up): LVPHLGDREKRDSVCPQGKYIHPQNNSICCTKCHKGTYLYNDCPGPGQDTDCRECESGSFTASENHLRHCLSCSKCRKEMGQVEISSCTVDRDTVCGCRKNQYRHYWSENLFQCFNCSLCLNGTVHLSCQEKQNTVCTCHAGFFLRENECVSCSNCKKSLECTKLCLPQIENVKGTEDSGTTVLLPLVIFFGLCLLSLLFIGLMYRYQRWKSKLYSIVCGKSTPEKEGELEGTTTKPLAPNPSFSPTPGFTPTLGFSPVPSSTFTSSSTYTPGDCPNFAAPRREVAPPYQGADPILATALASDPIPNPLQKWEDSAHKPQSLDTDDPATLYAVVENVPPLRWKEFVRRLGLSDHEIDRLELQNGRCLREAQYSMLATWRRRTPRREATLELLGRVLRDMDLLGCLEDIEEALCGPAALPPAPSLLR

T2: TNFR1 on THP-1 Lucia NF-kB reporter cells (UniProt P19438 30-455, limits assumed)
T2 sequence (looked up): T1 sequence (looked up)

B1: SEQ ID NO. 279 (peptide)
peptide: {CH2CO}-[Nle][4Pal][Pip(4-aza)]W[dPro(trans-4-F)]N[4Pal][Trp(7-Cl)][αMeS][Phe(4-COOH)]Y[Sar][Trp(βS-Me,7-OMe)]C-NH2
modifications: thioether N-14
SMILES: CCCC[C@@H]1NC(=O)CSC[C@@H](C(N)=O)NC(=O)[C@H]([C@@H](C)c2c[nH]c3c(OC)cccc23)NC(=O)CN(C)C(=O)[C@H](Cc2ccc(O)cc2)NC(=O)[C@H](Cc2ccc(C(=O)O)cc2)NC(=O)[C@](C)(CO)NC(=O)[C@H](Cc2c[nH]c3c(Cl)cccc23)NC(=O)[C@H](Cc2ccncc2)NC(=O)[C@H](CC(N)=O)NC(=O)[C@H]2C[C@H](F)CN2C(=O)[C@H](Cc2c[nH]c3ccccc23)NC(=O)[C@@H]2CNCCN2C(=O)[C@H](Cc2ccncc2)NC1=O
B2: SEQ ID NO. 108 (peptide)
peptide: cyclo([bhcLeu][Nle][4Pal][Pip2c]W[NMeE]N[Phe(2-F,4-COOH)][Trp(7-Cl)][αMeS][Phe(4-COOH)]Y[Sar][Trp(βS-Me,7-OMe)])
modifications: reading uncertain; also: printed as cyclo(bhcLeu-Nle-4Pal-Pip2c-W-NMeE-N-Phe2F4COOH-Trp7Cl-aMeS-Phe4COOH-Y-Sar-SbMeW7OMe)
B3: SEQ ID NO. 137 (peptide)
peptide: cyclo([bhcLeu][hL][4Pal][Pip2c]W[NMeE]N[4Pal][Trp(7-Cl)][αMeS][Phe(4-COOH)]Y[Sar][Trp(βS-Me,7-OMe)])
modifications: reading uncertain; also: printed as cyclo(bhcLeu-hL-4Pal-Pip2c-W-NMeE-N-4Pal-Trp7Cl-aMeS-Phe4COOH-Y-Sar-SbMeW7OMe)
B4: SEQ ID NO. 24 (peptide)
peptide: cyclo([bhcLeu][Nle][4Pal][Pip2c]W[NMeE]N[4Pal][Trp(7-Cl)][αMeS][Phe(4-COOH)][Tyr3OMe][Sar][Trp(βS-Me,7-OMe)])
modifications: reading uncertain; also: printed as cyclo(bhcLeu-Nle-4Pal-Pip2c-W-NMeE-N-4Pal-Trp7Cl-aMeS-Phe4COOH-Tyr3OMe-Sar-SbMeW7OMe)
B5: SEQ ID NO. 117 (peptide)
peptide: cyclo([bhcLeu][Nle][4Pal][Pip2c]W[NMeE]N[Phe4COOMe][Trp(7-Cl)][αMeS][Phe(4-COOH)]Y[Sar][Trp(βS-Me,7-OMe)])
modifications: reading uncertain; also: printed as cyclo(bhcLeu-Nle-4Pal-Pip2c-W-NMeE-N-Phe4COOMe-Trp7Cl-aMeS-Phe4COOH-Y-Sar-SbMeW7OMe)
B6: SEQ ID NO. 63 (peptide)
peptide: cyclo([bhcLeu][Nle][4Pal][Pip2c]W[NMeE]N[4Pal][Trp(7-Cl)][αMeS][Phe(4-COOH)][Phe4AcPip][Sar][Trp(βS-Me,7-OMe)])
modifications: reading uncertain; also: printed as cyclo(bhcLeu-Nle-4Pal-Pip2c-W-NMeE-N-4Pal-Trp7Cl-aMeS-Phe4COOH-Phe4AcPip-Sar-SbMeW7OMe)
B7: SEQ ID NO. 28 (peptide)
peptide: cyclo([bhcLeu][Nle][4Pal][Pip2c]W[NMeE]N[4Pal][Trp(7-Cl)][αMeS][Phe(3-COOH)]Y[Sar][Trp(βS-Me,7-OMe)])
modifications: reading uncertain; also: printed as cyclo(bhcLeu-Nle-4Pal-Pip2c-W-NMeE-N-4Pal-Trp7Cl-aMeS-Phe3COOH-Y-Sar-SbMeW7OMe)
B8: SEQ ID NO. 55 (peptide)
peptide: cyclo([bhcLeu][Ahp′][SbMe4Pal]DW[dHyp]N[Phe(4-COOH)][Trp(7-CN)][αMeS][Phe(4-CONH2)][Phe(4-CONH2)][Sar][Trp(βS-Me,7-OMe)])
modifications: reading uncertain; also: printed as cyclo(bhcLeu-Ahp-SbMe4Pal-D-W-dProt4OH-N-Phe4COOH-Trp7CN-aMeS-Phe4CONH2-Phe4CONH2-Sar-SbMeW7OMe)
B9: SEQ ID NO. 47 (peptide)
peptide: cyclo([bhcLeu][LysMe3][4Pal][Pip′]W[NMeE]N[4Pal][Trp(7-Cl)][αMeS][Phe(4-COOH)]Y[Sar][Trp(βS-Me,7-OMe)])
B10: SEQ ID NO. 111 (peptide)
peptide: cyclo([bhcLeu][Nle][4Pal][Pip2c]W[NMeE]N[4Pal][Trp(7-Cl)][αMeS][F4MCO2H]Y[Sar][Trp(βS-Me,7-OMe)])
modifications: reading uncertain; also: printed as cyclo(bhcLeu-Nle-4Pal-Pip2c-W-NMeE-N-4Pal-Trp7Cl-aMeS-F4MCO2H-Y-Sar-SbMeW7OMe)
B11: SEQ ID NO. 40 (peptide)
peptide: cyclo([bhcLeu][Nle][3Pal][Pip2c]W[NMeE]N[4Pal][Trp(7-Cl)][αMeS][Phe(4-COOH)]Y[Sar][Trp(βS-Me,7-OMe)])
modifications: reading uncertain; also: printed as cyclo(bhcLeu-Nle-3Pal-Pip2c-W-NMeE-N-4Pal-Trp7Cl-aMeS-Phe4COOH-Y-Sar-SbMeW7OMe)
B12: SEQ ID NO. 58 (peptide)
peptide: {CH2CO}-[Nle][4Pal][Pip′][Trp(7-aza)][NMeE]N[Phe(4-CH2NH2)][Trp(7-Cl)][αMeS][Phe(4-CH2NH2)]Y[Sar][Trp(βS-Me,7-OMe)]C-NH2
modifications: thioether N-14
B13: SEQ ID NO. 25 (peptide)
peptide: cyclo([bhcLeu][Nle][4Pal][Pipt5OH]W[dHyp][SbOHAsn][4Pal][Trp(7-CN)][αMeS][Phe(4-CONH2)][Phe(4-COOH)][Sar][Trp(βS-Me,7-OMe)])
modifications: reading uncertain; also: printed as cyclo(bhcLeu-Nle-4Pal-Pipt5OH-W-dProt4OH-SbOHAsn-4Pal-Trp7CN-aMeS-Phe4CONH2-Phe4COOH-Sar-SbMeW7OMe)
B14: SEQ ID NO. 142 (peptide)
peptide: cyclo([bhcLeu][SerOEt][4Pal][Pipt5OH]W[dHyp]N[4Pal][Trp(7-Cl)][αMeS][Phe(4-CONH2)][Phe(4-COOH)][Sar][Trp(βS-Me,7-OMe)])
modifications: reading uncertain; also: printed as cyclo(bhcLeu-SerOEt-4Pal-Pipt5OH-W-dProt4OH-N-4Pal-Trp7Cl-aMeS-Phe4CONH2-Phe4COOH-Sar-SbMeW7OMe)
B15: SEQ ID NO. 133 (peptide)
peptide: cyclo([bhcLeu][Nle][4Pal][Pipt5OH][Trp(7-aza)][dNMeE]N[F4SO2NH2][Trp(7-CN)][αMeS][Phe(4-CONH2)][Phe(4-COOH)][Sar][Trp(βS-Me,7-OMe)])
modifications: reading uncertain
B16: SEQ ID NO. 52 (peptide)
peptide: {CH2CO}-[Nle][4Pal][Pip2c][TrpCH2COOH][NMeE]N[Phe(4-COOH)][Trp(7-Cl)][αMeS][Phe(4-CONH2)]Y[Sar][Trp(βS-Me,7-OMe)]C-NH2
modifications: thioether N-14; reading uncertain; also: printed as cyclo(ClAc-Nle-4Pal-Pip2c-TrpCH2COOH-NMeE-N-Phe4COOH-Trp7Cl-aMeS-Phe4CONH2-Y-Sar-SbMeW7OMe-C)-NH2
B17: SEQ ID NO. 138 (peptide)
peptide: cyclo([bhcLeu][Nle][4Pal][Pip2c]W[NMeE]N[TZAla][Trp(7-Cl)][αMeS][Phe(4-COOH)]Y[Sar][Trp(βS-Me,7-OMe)])
modifications: reading uncertain; also: printed as cyclo(bhcLeu-Nle-4Pal-Pip2c-W-NMeE-N-TZAla-Trp7Cl-aMeS-Phe4COOH-Y-Sar-SbMeW7OMe)
B18: SEQ ID NO. 120 (peptide)
peptide: cyclo([bhcLeu][Nle][4Pal][Pipc5CO2H]W[NMeE]N[4Pal][Trp(7-Cl)][αMeS][Phe(4-COOH)]Y[Sar][Trp(βS-Me,7-OMe)])
B19: SEQ ID NO. 125 (peptide)
peptide: {CH2CO}-[Nle][4Pal][Prot4NH2][Trp(7-aza)][NMeE]N[4Pal][Trp(7-Cl)][αMeS][Phe(4-COOH)]Y[Sar][Trp(βS-Me,7-OMe)]C-NH2
modifications: thioether N-14
B20: SEQ ID NO. 126 (peptide)
peptide: cyclo([bhcLeu][Nle][4Pal][Pipt5OH]W[NMeE]N[4Pal][Trp(7-Cl)][αMeS][Phe(4-CONH2)][TyrOcm][Sar][Trp(βS-Me,7-OMe)])
modifications: reading uncertain; also: printed as cyclo(bhcLeu-Nle-4Pal-Pipt5OH-W-NMeE-N-4Pal-Trp7Cl-aMeS-Phe4CONH2-TyrOcm-Sar-SbMeW7OMe)
B21: SEQ ID NO. 107 (peptide)
peptide: cyclo([bhcLeu][Nle][4Pal][Pip2c]W[NMeE]N[4Pal][Trp(7-Cl)][αMeS][Phe(4-COOH)][Phe(2-F,4-COOH)][Sar][Trp(βS-Me,7-OMe)])
modifications: reading uncertain; also: printed as cyclo(bhcLeu-Nle-4Pal-Pip2c-W-NMeE-N-4Pal-Trp7Cl-aMeS-Phe4COOH-Phe2F4COOH-Sar-SbMeW7OMe)

biological target: T1, TNFR1 on THP-1 Lucia NF-κB cells; experiment: cell-based or functional assay

In the case of B1, the “THP-1 IC50” value is reported as 1.4 nM.

biological target: T2, TNFR1 on THP-1 Lucia NF-kB reporter …; experiment: cell-based or functional assay

B2 and B3 are within 1.5-fold of each other in “THP-1 IC50” value: 1.2 nM for the first, 1.3 nM for the second.

First: B4
Second: B5
The “THP-1 IC50” value of the first is 3-fold lower: 0.7 nM for the first, 2.1 nM for the second.

B6 and B7 are within 1.5-fold of each other in “THP-1 IC50” value: 1.2 nM for the first, 1.6 nM for the second.

B8 and B9 are within 1.5-fold of each other in “THP-1 IC50” value: 1.3 nM for the first, 1.9 nM for the second.

B10 and B11 are within 1.5-fold of each other in “THP-1 IC50” value: 1.6 nM for the first, 1.5 nM for the second.

First: B12
Second: B13
The “THP-1 IC50” value of the first is 20-fold higher: 16.2 nM for the first, 0.8 nM for the second.

B14 and B15 are within 1.5-fold of each other in “THP-1 IC50” value: 1.1 nM for the first, 1.4 nM for the second.

Going from B16 to B17, the “THP-1 IC50” value falls from 3.9 nM to 2 nM (1.9-fold).

Going from B18 to B19, the “THP-1 IC50” value rises from 1.4 nM to 4.1 nM (2.9-fold).

B20 and B21 are within 1.5-fold of each other in “THP-1 IC50” value: 0.8 nM for the first, 1 nM for the second.
